How the values were obtained:
[1] = target: 20S proteasome (human (endogenous in red blood cells)) (UniProt P25786); assay: negative stain electron microscopy
[2] = target: the molecule itself; assay: negative stain electron microscopy

20S proteasome (human (endogenous in red blood cells)), sequence (P25786 whole entry, looked up): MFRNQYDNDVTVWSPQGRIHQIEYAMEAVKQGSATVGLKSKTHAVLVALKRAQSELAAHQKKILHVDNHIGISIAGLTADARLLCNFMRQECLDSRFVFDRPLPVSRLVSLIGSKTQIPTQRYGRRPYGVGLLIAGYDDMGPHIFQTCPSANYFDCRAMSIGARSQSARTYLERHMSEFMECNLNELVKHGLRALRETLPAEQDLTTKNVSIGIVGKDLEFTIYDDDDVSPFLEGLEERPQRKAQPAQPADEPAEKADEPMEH

percent of the observed proteasomes that were singly-capped 26S [1] [%]	Molecule	stoichiometry N [2]
6	19S regulatory cap of the proteasome (complex)	–
–	peroxiredoxin PRDX2 (enzyme, human (endogenous in red blood cells), UniProt P32119 1-198, looked up) MASGNARIGKPAPDFKATAVVDGAFKEVKLSDYKGKYVVLFFYPLDFTFVCPTEIIAFSNRAEDFRKLGCEVLGVSVDSQFTHLAWINTPRKEGGLGPLNIPLLADVTRRLSEDYGVLKTDEGIAYRGLFIIDGKGVLRQITVNDLPVGRSVDEALRLVQAFQYTDEHGEVCPAGWKPGSDTIKPNVDDSKEYFSKHN	10

— doi:10.1101/2021.12.10.472004 (bioRxiv, 2021)
